Experimental data as given in PMC3155616 (Cell, 2011).

Biological target: E. coli SSB (wild type single-stranded DNA binding protein, homotetramer) (E. coli, UniProt P0AGE0 1-178)
Experiment: ITC

Sequence of E. coli SSB (wild type single-stranded DNA binding protein, homotetramer) (P0AGE0 whole entry): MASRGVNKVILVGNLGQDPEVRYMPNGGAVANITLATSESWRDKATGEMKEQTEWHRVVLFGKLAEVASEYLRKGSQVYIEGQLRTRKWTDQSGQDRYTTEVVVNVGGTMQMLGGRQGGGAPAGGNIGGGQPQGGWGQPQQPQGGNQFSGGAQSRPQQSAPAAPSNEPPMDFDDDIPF

B1: E. coli RecO protein (natural protein, UniProt P0A7H3 1-242, looked up)
chain: MEGWQRAFVLHSRPWSETSLMLDVFTEESGRVRLVAKGARSKRSTLKGALQPFTPLLLRFGGRGEVKTLRSAEAVSLALPLSGITLYSGLYINELLSRVLEYETRFSELFFDYLHCIQSLAGVTGTPEPALRRFELALLGHLGYGVNFTHCAGSGEPVDDTMTYRYREEKGFIASVVIDNKTFTGRQLKALNAREFPDADTLRAAKRFTRMALKPYLGGKPLKSRELFRQFMPKRTVKTHYE
- stoichiometry N: 1 RecO per SSB C-terminal tail (four tails per tetramer)
